# Test results as given in PMC4846438, “The crystal structure of human dopamine β-hydroxylase at 2.9 Å resolution” (Science Advances, 2016).
# Where “and” joins values, the source holds several entries; their conditions need not be identical. Identical values can stand only once.
# B1: soluble human dopamine β-hydroxylase, residues 40 to 617, FLAG-tagged (enzyme, UniProt P09172 40-617, looked up)
# chain: SAPRESPLPYHIPLDPEGSLELSWNVSYTQEAIHFQLLVRRLKAGVLFGMSDRGELENADLVVLWTDGDTAYFADAWSDQKGQIHLDPQQDYQLLQVQRTPEGLTLLFKRPFGTCDPKDYLIEDGTVHLVYGILEEPFRSLEAINGSGLQMGLQRVQLLKPNIPEPELPSDACTMEVQAPNIQIPSQETTYWCYIKELPKGFSRHHIIKYEPIVTKGNEALVHHMEVFQCAPEMDSVPHFSGPCDSKMKPDRLNYCRHVLAAWALGAKAFYYPEEAGLAFGGPGSSRYLRLEVHYHNPLVIEGRNDSSGIRLYYTAKLRRFNAGIMELGLVYTPVMAIPPRETAFILTGYCTDKCTQLALPPSGIHIFASQLHTHLTGRKVVTVLVRDGREWEIVNQDNHYSPHFQEIRMLKKVVSVHPGDVLITSCTYNTEDRELATVGGFGILEEMCVNYVHYYPQTQLELCKSAVDAGFLQKYFHLINRFNNEDVCTCPQASVSQQFTSVPWNSFNRDVLKALYSFAPISMHCNKSSAVRFQGEWNLQPLPKVISTLEEPTPQCPTSQGRSPAGPTVVSIGGGKG
# modifications: glycosylation at Asn64, Asn184, Asn344 and Asn566; intermolecular disulfides C528-C530 and C530-C528 between the two chains of the dimer
# notes: human dopamine β-hydroxylase, residues 40 to 617; the first 39 residues (signal anchor for type II membrane proteins) left out to obtain soluble DBH; the dimeric fraction was crystallised; A SeMet-labelled form was used for phasing only; also called DBH; dopamine β-monooxygenase; not shown: FLAG, C-terminal, kept
# Target: the molecule itself
# Assay: SEC; Superdex 200 HR 16/60, 10 mM Hepes, 150 mM NaCl, pH 7.5, 1 ml/min; dimer and tetramer separated; they do not interconvert in the pH interval 4 to 9
protein,measurement,value
B1,stoichiometry N,2 and 4
